Ends that are not written are not given here. * marks the point of attachment. C16 diacid = O=C(O)CCCCCCCCCCCCCCC(=O)*; Stearoyl = CCCCCCCCCCCCCCCCCC(=O)*; Palmitoyl = CCCCCCCCCCCCCCCC(=O)*; Myristoyl = CCCCCCCCCCCCCC(=O)*; Lauroyl = CCCCCCCCCCCC(=O)*
Assays:
human GIP receptor [1] = target: T1, human GIP receptor (human, UniProt P48546 22-466); assay: cell-based or functional assay
T1 sequence (looked up): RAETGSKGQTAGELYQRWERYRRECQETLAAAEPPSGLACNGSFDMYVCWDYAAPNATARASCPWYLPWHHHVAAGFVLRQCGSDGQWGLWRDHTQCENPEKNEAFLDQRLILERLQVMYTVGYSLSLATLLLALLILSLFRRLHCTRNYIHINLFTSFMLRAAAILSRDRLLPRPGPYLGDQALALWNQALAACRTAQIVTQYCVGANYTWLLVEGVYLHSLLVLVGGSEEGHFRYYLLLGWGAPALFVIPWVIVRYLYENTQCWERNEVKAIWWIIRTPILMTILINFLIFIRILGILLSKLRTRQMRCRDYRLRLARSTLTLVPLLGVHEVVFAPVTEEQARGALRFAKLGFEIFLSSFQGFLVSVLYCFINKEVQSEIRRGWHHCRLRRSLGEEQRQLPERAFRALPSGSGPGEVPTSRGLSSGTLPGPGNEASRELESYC

human GIP receptor [2] = target: T1, human GIP receptor; assay: 125I-hGIP(1-42) competition binding, COS-7 cells expressing human GIPR, with 2% HSA;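 also: nonspecific signal taken as radioligand bound to untransfected cells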
Protocol: (§1) After incubation, the cells were washed twice in ice-cold binding buffer (+/−2% HSA) and lysed using 200 mM NaOH with 1% SDS for 30 min. Nonspecific binding was determined as the binding of radioactive ligand to untransfected cells.

human GIP receptor [3] = target: T1, human GIP receptor; assay: 125I-hGIP(1-42) competition binding, COS-7 cells expressing human GIPR, without HSA;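 also: nonspecific binding defined as radioligand bound to cells lacking the transfected receptor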
Protocol: as §1

human GIP receptor [4] = target: T1, human GIP receptor; assay: ratio of Ki with 2% HSA to Ki without HSA, 125I-hGIP competition binding on hGIPR COS-7 cells;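 also: nonspecific binding was defined as radioligand signal on cells lacking the receptor transfection, with cell lysates measured after washes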
Protocol: as §1

human GIP receptor [5] = target: T1, human GIP receptor; assay: 125I-hGIP competition binding on hGIPR COS-7 cells; fold in affinity, paired, reference taken as GIP(3-30)NH2
Protocol: as §1

human GIP receptor [6] = target: T1, human GIP receptor; assay: 125I-hGIP(1-42) competition binding, COS-7 cells expressing human GIPR
Protocol: as §1

human GIP receptor [7] = target: T1, human GIP receptor; assay: cell-based or functional assay; remark: listed apart in the source

B1: AT188 [hGIP(5-30)NH2[A28K]-C16diacid/28] (peptide)
peptide: TFISDYSIAMDKIHQQDFVNWLLK(C16 diacid)QK-NH2
modifications: N-terminus assumed
SMILES: CC[C@H](C)[C@H](NC(=O)[C@H](CO)NC(=O)[C@H](Cc1ccc(O)cc1)NC(=O)[C@H](CC(=O)O)NC(=O)[C@H](CO)NC(=O)[C@@H](NC(=O)[C@H](Cc1ccccc1)NC(=O)[C@@H](N)[C@@H](C)O)[C@@H](C)CC)C(=O)N[C@@H](C)C(=O)N[C@@H](CCSC)C(=O)N[C@@H](CC(=O)O)C(=O)N[C@@H](CCCCN)C(=O)N[C@H](C(=O)N[C@@H](Cc1c[nH]cn1)C(=O)N[C@@H](CCC(N)=O)C(=O)N[C@@H](CCC(N)=O)C(=O)N[C@@H](CC(=O)O)C(=O)N[C@@H](Cc1ccccc1)C(=O)N[C@H](C(=O)N[C@@H](CC(N)=O)C(=O)N[C@@H](Cc1c[nH]c2ccccc12)C(=O)N[C@@H](CC(C)C)C(=O)N[C@@H](CC(C)C)C(=O)N[C@@H](CCCCNC(=O)CCCCCCCCCCCCCCC(=O)O)C(=O)N[C@@H](CCC(N)=O)C(=O)N[C@@H](CCCCN)C(N)=O)C(C)C)[C@@H](C)CC
Human GIP receptor [1]
  cAMP accumulation Fold (fold change from GIP(5-30)NH2): 6.8 fold
  cAMP accumulation IC50: 186 nM
  cAMP accumulation logIC50: -6.73 log(M)
Human GIP receptor [2]
  Ki: 462 nM
Human GIP receptor [3]
  Ki: 144 nM
Human GIP receptor [4]
  Fold (Ki + HSA / Ki - HSA): 3.2 fold

B2: AT189 [hGIP(5-30)NH2[Q29K]-C16diacid/29] (peptide)
peptide: TFISDYSIAMDKIHQQDFVNWLLAK(C16 diacid)K-NH2
modifications: N-terminus assumed
SMILES: CC[C@H](C)[C@H](NC(=O)[C@H](CO)NC(=O)[C@H](Cc1ccc(O)cc1)NC(=O)[C@H](CC(=O)O)NC(=O)[C@H](CO)NC(=O)[C@@H](NC(=O)[C@H](Cc1ccccc1)NC(=O)[C@@H](N)[C@@H](C)O)[C@@H](C)CC)C(=O)N[C@@H](C)C(=O)N[C@@H](CCSC)C(=O)N[C@@H](CC(=O)O)C(=O)N[C@@H](CCCCN)C(=O)N[C@H](C(=O)N[C@@H](Cc1c[nH]cn1)C(=O)N[C@@H](CCC(N)=O)C(=O)N[C@@H](CCC(N)=O)C(=O)N[C@@H](CC(=O)O)C(=O)N[C@@H](Cc1ccccc1)C(=O)N[C@H](C(=O)N[C@@H](CC(N)=O)C(=O)N[C@@H](Cc1c[nH]c2ccccc12)C(=O)N[C@@H](CC(C)C)C(=O)N[C@@H](CC(C)C)C(=O)N[C@@H](C)C(=O)N[C@@H](CCCCNC(=O)CCCCCCCCCCCCCCC(=O)O)C(=O)N[C@@H](CCCCN)C(N)=O)C(C)C)[C@@H](C)CC
Human GIP receptor [1]
  cAMP accumulation Fold (fold change from GIP(5-30)NH2): 3 fold
  cAMP accumulation IC50: 83.2 nM
  cAMP accumulation logIC50: -7.08 log(M)
Human GIP receptor [2]
  Ki: 276 nM
Human GIP receptor [3]
  Ki: 85.5 nM
Human GIP receptor [4]
  Fold (Ki + HSA / Ki - HSA): 3.2 fold

B3: AT110 [hGIP(3-30)NH2-C14/3] (peptide)
peptide: Myristoyl-EGTFISDYSIAMDKIHQQDFVNWLLAQK-NH2
Human GIP receptor [5]
  fold (paired): 5.2 fold
Human GIP receptor [6]
  IC50: 55 nM

B4: AT140 [hGIP(5-30)NH2-C16diacid/16] (peptide)
peptide: TFISDYSIAMDK(C16 diacid)IHQQDFVNWLLAQK-NH2
modifications: N-terminus assumed
SMILES: CC[C@H](C)[C@H](NC(=O)[C@H](CO)NC(=O)[C@H](Cc1ccc(O)cc1)NC(=O)[C@H](CC(=O)O)NC(=O)[C@H](CO)NC(=O)[C@@H](NC(=O)[C@H](Cc1ccccc1)NC(=O)[C@@H](N)[C@@H](C)O)[C@@H](C)CC)C(=O)N[C@@H](C)C(=O)N[C@@H](CCSC)C(=O)N[C@@H](CC(=O)O)C(=O)N[C@@H](CCCCNC(=O)CCCCCCCCCCCCCCC(=O)O)C(=O)N[C@H](C(=O)N[C@@H](Cc1c[nH]cn1)C(=O)N[C@@H](CCC(N)=O)C(=O)N[C@@H](CCC(N)=O)C(=O)N[C@@H](CC(=O)O)C(=O)N[C@@H](Cc1ccccc1)C(=O)N[C@H](C(=O)N[C@@H](CC(N)=O)C(=O)N[C@@H](Cc1c[nH]c2ccccc12)C(=O)N[C@@H](CC(C)C)C(=O)N[C@@H](CC(C)C)C(=O)N[C@@H](C)C(=O)N[C@@H](CCC(N)=O)C(=O)N[C@@H](CCCCN)C(N)=O)C(C)C)[C@@H](C)CC
notes: also called AT140 [hGIP(5-30)-C16-diacid/16]
Human GIP receptor [1]
  cAMP accumulation Fold (fold change from GIP(5-30)NH2): 7.4 fold
  cAMP accumulation IC50: 204 nM
  cAMP accumulation logIC50: -6.69 log(M)
Human GIP receptor [2]
  Ki: 3280 nM
Human GIP receptor [3]
  Ki: 2160 nM
Human GIP receptor [4]
  Fold (Ki + HSA / Ki - HSA): 1.5 fold

B5: AT105 [hGIP(3-30)NH2-C16/16] (peptide)
peptide: EGTFISDYSIAMDK(Palmitoyl)IHQQDFVNWLLAQK-NH2
Human GIP receptor [5]
  fold (paired): 34 fold
Human GIP receptor [6]
  IC50: 522 nM
Human GIP receptor [7]
  cAMP - antagonisme IC50: 23.8 nM
  cAMP - antagonisme fold (paired): 3.4 fold

B6: AT113 [hGIP(3-30)NH2-C18/3] (peptide)
peptide: Stearoyl-EGTFISDYSIAMDKIHQQDFVNWLLAQK-NH2
Human GIP receptor [5]
  fold (paired): 16400 fold
Human GIP receptor [6]
  IC50: 41400 nM

B7: AT102 [hGIP(3-30)NH2-C12/16] (peptide)
peptide: EGTFISDYSIAMDK(Lauroyl)IHQQDFVNWLLAQK-NH2
Human GIP receptor [5]
  fold (paired): 6.1 fold
Human GIP receptor [6]
  IC50: 59.1 nM

B8: AT104 [hGIP(3-30)NH2-C16/3] (peptide)
peptide: Palmitoyl-EGTFISDYSIAMDKIHQQDFVNWLLAQK-NH2
Human GIP receptor [5]
  fold (paired): 4.9 fold
Human GIP receptor [6]
  IC50: 75 nM

B9: AT137 [hGIP(5-30)NH2-C16diacid/5] (peptide)
peptide: {C16 diacid}-TFISDYSIAMDKIHQQDFVNWLLAQK-NH2
SMILES: CC[C@H](C)[C@H](NC(=O)[C@H](CO)NC(=O)[C@H](Cc1ccc(O)cc1)NC(=O)[C@H](CC(=O)O)NC(=O)[C@H](CO)NC(=O)[C@@H](NC(=O)[C@H](Cc1ccccc1)NC(=O)[C@@H](NC(=O)CCCCCCCCCCCCCCC(=O)O)[C@@H](C)O)[C@@H](C)CC)C(=O)N[C@@H](C)C(=O)N[C@@H](CCSC)C(=O)N[C@@H](CC(=O)O)C(=O)N[C@@H](CCCCN)C(=O)N[C@H](C(=O)N[C@@H](Cc1c[nH]cn1)C(=O)N[C@@H](CCC(N)=O)C(=O)N[C@@H](CCC(N)=O)C(=O)N[C@@H](CC(=O)O)C(=O)N[C@@H](Cc1ccccc1)C(=O)N[C@H](C(=O)N[C@@H](CC(N)=O)C(=O)N[C@@H](Cc1c[nH]c2ccccc12)C(=O)N[C@@H](CC(C)C)C(=O)N[C@@H](CC(C)C)C(=O)N[C@@H](C)C(=O)N[C@@H](CCC(N)=O)C(=O)N[C@@H](CCCCN)C(N)=O)C(C)C)[C@@H](C)CC
Human GIP receptor [1]
  cAMP accumulation Fold (fold change from GIP(5-30)NH2): 3.7 fold
  cAMP accumulation IC50: 102 nM
  cAMP accumulation logIC50: -6.99 log(M)
Human GIP receptor [2]
  Ki: 117 nM
Human GIP receptor [3]
  Ki: 59.3 nM
Human GIP receptor [4]
  Fold (Ki + HSA / Ki - HSA): 2 fold

B10: AT101 [hGIP(3-30)NH2-C12/3] (peptide)
peptide: Lauroyl-EGTFISDYSIAMDKIHQQDFVNWLLAQK-NH2
Human GIP receptor [5]
  fold (paired): 0.7 fold
Human GIP receptor [6]
  IC50: 9.9 nM

B11: AT107 [hGIP(3-30)NH2[T5W; D15E; H18A]-C16/16] (peptide)
peptide: EGWFISDYSIAMEK(Palmitoyl)IAQQDFVNWLLAQK-NH2
modifications: N-terminus assumed
SMILES: CCCCCCCCCCCCCCCC(=O)NCCCC[C@H](NC(=O)[C@H](CCC(=O)O)NC(=O)[C@H](CCSC)NC(=O)[C@H](C)NC(=O)[C@@H](NC(=O)[C@H](CO)NC(=O)[C@H](Cc1ccc(O)cc1)NC(=O)[C@H](CC(=O)O)NC(=O)[C@H](CO)NC(=O)[C@@H](NC(=O)[C@H](Cc1ccccc1)NC(=O)[C@H](Cc1c[nH]c2ccccc12)NC(=O)CNC(=O)[C@@H](N)CCC(=O)O)[C@@H](C)CC)[C@@H](C)CC)C(=O)N[C@H](C(=O)N[C@@H](C)C(=O)N[C@@H](CCC(N)=O)C(=O)N[C@@H](CCC(N)=O)C(=O)N[C@@H](CC(=O)O)C(=O)N[C@@H](Cc1ccccc1)C(=O)N[C@H](C(=O)N[C@@H](CC(N)=O)C(=O)N[C@@H](Cc1c[nH]c2ccccc12)C(=O)N[C@@H](CC(C)C)C(=O)N[C@@H](CC(C)C)C(=O)N[C@@H](C)C(=O)N[C@@H](CCC(N)=O)C(=O)N[C@@H](CCCCN)C(N)=O)C(C)C)[C@@H](C)CC
Human GIP receptor [5]
  fold (paired): 186 fold
Human GIP receptor [6]
  IC50: 5220 nM
Human GIP receptor [7]
  cAMP - antagonisme IC50: 76.9 nM
  cAMP - antagonisme fold (paired): 3.1 fold

Reference: patent US20200087373A1 (UNIVERSITY OF COPENHAGEN, published 2020)
